Data as given in article PMC11230231 (bioRxiv, 2024).

Target: integrin α5β1 on cells (human (endogenous in K562 and MCF10A), UniProt P08648;P05556)
Experiment: flow cytometry on cells

integrin α5β1 on cells, sequence (P08648 42-1049, chain 1 of 2): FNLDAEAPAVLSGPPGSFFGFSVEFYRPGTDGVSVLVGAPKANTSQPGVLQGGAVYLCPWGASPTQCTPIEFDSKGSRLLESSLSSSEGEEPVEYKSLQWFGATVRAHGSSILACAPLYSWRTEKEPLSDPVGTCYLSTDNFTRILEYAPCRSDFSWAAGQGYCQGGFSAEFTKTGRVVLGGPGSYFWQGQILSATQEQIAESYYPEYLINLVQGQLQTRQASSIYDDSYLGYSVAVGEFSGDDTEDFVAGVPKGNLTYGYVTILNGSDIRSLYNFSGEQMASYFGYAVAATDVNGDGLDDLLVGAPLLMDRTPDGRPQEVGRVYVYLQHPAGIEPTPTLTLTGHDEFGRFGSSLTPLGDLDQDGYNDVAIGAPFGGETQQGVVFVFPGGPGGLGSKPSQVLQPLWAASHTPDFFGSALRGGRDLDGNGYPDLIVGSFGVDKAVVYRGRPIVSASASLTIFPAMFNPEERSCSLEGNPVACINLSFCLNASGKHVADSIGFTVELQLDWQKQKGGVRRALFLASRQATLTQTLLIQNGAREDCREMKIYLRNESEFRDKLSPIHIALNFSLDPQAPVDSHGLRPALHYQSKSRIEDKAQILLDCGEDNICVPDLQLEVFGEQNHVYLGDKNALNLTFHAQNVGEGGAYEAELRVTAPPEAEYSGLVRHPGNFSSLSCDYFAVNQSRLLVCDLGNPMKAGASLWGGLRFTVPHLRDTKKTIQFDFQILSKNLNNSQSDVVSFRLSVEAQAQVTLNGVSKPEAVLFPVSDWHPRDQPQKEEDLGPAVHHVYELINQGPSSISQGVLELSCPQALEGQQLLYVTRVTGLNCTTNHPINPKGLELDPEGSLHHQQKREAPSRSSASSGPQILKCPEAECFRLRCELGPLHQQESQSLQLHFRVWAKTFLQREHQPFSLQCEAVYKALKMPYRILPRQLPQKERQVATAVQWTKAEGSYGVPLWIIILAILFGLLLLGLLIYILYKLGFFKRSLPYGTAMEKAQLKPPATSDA
integrin α5β1 on cells, sequence (P05556 21-798, chain 2 of 2): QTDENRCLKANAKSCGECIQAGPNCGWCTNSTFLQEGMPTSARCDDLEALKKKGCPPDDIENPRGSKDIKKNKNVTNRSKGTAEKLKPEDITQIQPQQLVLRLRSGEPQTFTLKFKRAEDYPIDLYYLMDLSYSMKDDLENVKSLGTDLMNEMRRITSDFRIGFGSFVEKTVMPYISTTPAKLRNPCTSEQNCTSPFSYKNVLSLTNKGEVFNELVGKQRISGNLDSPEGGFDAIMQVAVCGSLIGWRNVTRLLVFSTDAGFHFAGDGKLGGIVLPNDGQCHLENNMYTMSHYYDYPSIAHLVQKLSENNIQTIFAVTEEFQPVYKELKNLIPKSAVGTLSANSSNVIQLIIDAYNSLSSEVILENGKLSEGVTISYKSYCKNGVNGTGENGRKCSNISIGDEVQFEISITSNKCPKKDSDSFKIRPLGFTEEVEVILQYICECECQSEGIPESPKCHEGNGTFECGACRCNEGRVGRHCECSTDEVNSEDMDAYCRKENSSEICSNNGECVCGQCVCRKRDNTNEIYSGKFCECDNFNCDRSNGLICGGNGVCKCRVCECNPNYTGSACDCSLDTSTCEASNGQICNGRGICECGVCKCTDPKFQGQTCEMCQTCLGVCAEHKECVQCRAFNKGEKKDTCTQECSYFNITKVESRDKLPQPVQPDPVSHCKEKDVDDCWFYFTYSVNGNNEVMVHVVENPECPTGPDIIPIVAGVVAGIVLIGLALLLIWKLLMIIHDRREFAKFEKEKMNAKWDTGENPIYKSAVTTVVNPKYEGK

A Kd of 150 ± 20 µM was found for GRRGDGATGH [RGD peptide (GRRGDGATGH)] in this work.
